According to the supplement of paper PMC7125110:
± gives the standard error. Variants at the floor of the assay were thinned out.

B1: glmS ribozyme (parent)
chain: AUAAAAGCGCCAGAACUACAGAAAUGUAGUUGACGAGGAGGAGGUUUAUCGAAUUUUCGGCGGAUGCCUCCAAA

Columns and labels:
Details in all cases: with glucosamine-6-phosphate
[1] = variants of: B1; assay: self-cleavage kobs at 640 uM GlcN6P; higher = faster cleavage; RNA array
Procedure, shortened: (§1)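 Barcoded ribozyme variants were transcribed in situ on sequenced MiSeq chips by E. coli RNA polymerase. At 37 °C, a hybridised Cy3 probe tracked them while glucosamine-6-phosphate (40 μM to 10 mM) in HEPES/KCl/Mg(OAc)2 buffer flowed in and tiles were imaged over ~14 h. Per-tile medians of signals normalised to baseline and to non-cleaving reference variants were fit to one- or two-exponential decays, giving kobs. kcat and KM came from weighted Michaelis–Menten fits across concentrations.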

[2] = variants of: B1; assay: self-cleavage kobs at 2500 uM GlcN6P; higher = faster cleavage; RNA array
Procedure, shortened: as §1

[3] = variants of: B1; assay: self-cleavage kobs at 10000 uM GlcN6P; higher = faster cleavage; RNA array
Procedure, shortened: as §1

| Variant | self-cleavage kobs at 640 uM GlcN6P [1] [s⁻¹] | self-cleavage kobs at 2500 uM GlcN6P [2] [s⁻¹] | self-cleavage kobs at 10000 uM GlcN6P [3] [s⁻¹] |
| --- | --- | --- | --- |
| AUAAAAGCGCCAGAACUACAGAAAUGUAGCUGACGAGGAGGAGGUUUAUCGAAUUUUCGGCGGAUGACUGCAAA | 6.32e-05 ± 1.4e-05 | – | – |
| AUAAAAGCGCCGGAACUACAGAAAUGUAGUUGACGAGGCGUAGGUUAUUCGAAUUUUCGGUGGUUGCCUCCAAA | < 1e-05 | < 1e-05 | – |
| AUAAAAGAGCCAGAACUACAGAAAUGUAGUUGACUAGGAGGAGGUUUAUCGAAUUUUCGGCGGAUGCCUGCAAA | 0.000526 ± 0.0002 | – | 7.27e-05 ± 2.4e-05 |
| AUAAAUGCGCCAGAACUACAGAAAUGUAGUGGACGAGGAGGAGGUUUAUCGAAUUUUCGGCGGAUGGCUCCAAA | < 1e-05 | – | – |
| AUAAAAGCGCCAGAACUACAGAAAUGUACUUGACGAGGAGCAGGUUUAUCGAAUUUUCGGCGGAUGCGUCCAAA | < 1e-05 | < 1e-05 | < 1e-05 |
| AUAAAAGCGCCAUAACUACAGAAAUGUACUUGACGAGGAGGAGGUUUAUCGAAUUUUCGACGGAUGCCCUCAAA | < 1e-05 | – | – |
| AUAAAAGGGUCAGAACUACAGAAAUGUAGUUGACGAGGAGGAGGUUUUUCGAAUUUUCGGCGGAUGCCUCCAAA | < 1e-05 | < 1e-05 | – |
| AUAAAAGCGGCCAGACUACAGAAAUGUAGUUGACGAGGUGGAGGUUUAUCGAAUUUUCGGCGGAUGCCUGCAAA | < 1e-05 | – | – |
| AUAAAAGCGCCAGAACUACAGAAAUGUAGUUGACGAGAAGGAGCUUUAUCGAAUUUUCGGCGGAUGUCUCAAAA | < 1e-05 | < 1e-05 | – |
| AUAAAAGCGCCAGAACUACAGAAAUGUAGUUGACAAGGAGGAGGUUUCUCGAAAUUUCGGCGGAUGCCUACAAA | < 1e-05 | – | < 1e-05 |
| AUAAAAGCGCCAGUACUACAGAAAUGUAGGUGACGAGGAAGAGGUUUAUCGAAUUUUCGGCGGAUGCCUCCAAA | 0.000126 ± 3.6e-05 | 0.000424 ± 0.00014 | – |
| AUAAAAGCGCCAGAACUACAGAAAUGUAGUUGACGAGGAGGAGGGGUAUCGAAUCUUCGGCGAAUGCCUCCAAA | < 1e-05 | < 1e-05 | – |
| AUAAAAGCCCCAGAACUACAGAAAUGUAGUUGACGAGGAGGAGGUUUAUCGAAUUUUCGGCGGAUGCCUGCAAA | < 1e-05 | – | < 1e-05 |
| AUAAAAGCGCCAGAACUACAGAAAUGUAAUUGACGAGAAGGAGGUUUAUCGAAUUUUCGGCGGAGGCCUCCAAA | < 1e-05 | < 1e-05 | – |
| AUAAAAGCGCCAGAACUACAGAAAUGUAGUUGACCCGGAGGCCGUUUAUCAAAUUUUCGGCGGAUGCCUCCAAA | < 1e-05 | < 1e-05 | – |
| AUAAAAGCGCCAGAACUACAGAAAUGUAGUUGACGUGGGGGAGGGUUAUCGAAUUUUCGGUCGAUGCCUCCAAA | < 1e-05 | < 1e-05 | < 1e-05 |
| AUAAAAACGCCAGAAGUACAGAAAUGUAGGUGACGAGGAGGAGUUUUAUCGGAUUUUCGGCGGAUGCCUCCAAA | < 1e-05 | < 1e-05 | – |
| AUAAAGGCGCCAGAACUACAGAAAUGUAGUUGACGAUGAGGAGGUUGAUGGAAUUUUGGGCGGAUGACUCCAAA | 7e-05 ± 2.9e-05 | – | – |
| AUAAAAGGGCCAGAACUACAGAAAUGUAGUUGACGAGGAGGAGGUUUAUCGAAUUUUAGGCGGAGGCCUCAAAA | < 1e-05 | – | – |
| AUAAAAGCGCCAGAAGUACAGAAAUGUAAUUGACGAGGAAGCGGUUUAUCGAAUUUUCGGCGGAUGCCUCCAAA | < 1e-05 | < 1e-05 | – |
| AUAAAAGCGCCAGAGCUACAGAAAUGUAUUUGACGAGGAGGAGGUUUAUCGAAUGUUCGGCGGGUGCCUCCAAA | 0.000144 ± 2.7e-05 | – | – |
| AUAAAAGCGCAAGAACUACAGAAAUGUAGUUGACGAGGAGGAGGUUUAUCGAGUUUUCGGCGAAUGCCUCCAAA | < 1e-05 | – | – |

| Variant | self-cleavage kobs at 640 uM GlcN6P [1] [s⁻¹] | self-cleavage kobs at 2500 uM GlcN6P [2] [s⁻¹] | self-cleavage kobs at 10000 uM GlcN6P [3] [s⁻¹] |
| --- | --- | --- | --- |
| AUAAAAGCGCCAGAACUACAGAAAUGUAGUUAACGAGGAGGAGGUUUACGGAAUUUUCGGCGGAUGCCUCCAAA | < 1e-05 | – | – |
| AUAAAAGCGCAAGAACUACAGAAAUGUAGUUGACGAGGAGGAGGUUUAUCGACUUUUCGGCGGAUUCCUCCAAA | < 1e-05 | – | – |
| AUAAAAGCGCUAGAACUACAGAAAUGUAGUUGACUAGGAGGAGAUUUAUCGAAUUUUCGGCGGAUGCCUCCAAA | < 1e-05 | < 1e-05 | – |
| AUAAAAGCGCCAGAACUACAGAAAUGUAGUCGACGAGGAGGAGGUUUAUCCAAUUUUCGGCGGAUGCCUCAAAA | < 1e-05 | – | – |
| AUAAAAGCGCCAGAACUACAGAAAUGUAGUUGACCAGGAGGAGCCUUGUCGAAUUUUCGGCGGAUGCCUCCAAA | < 1e-05 | < 1e-05 | – |
| AUAAAAGAGCUAGAACUACAGAAAUGUAGUUGACGAGGAGGAGGUUUAUCGAAUUUUCGCCGGAUGACUCCAAA | < 1e-05 | < 1e-05 | < 1e-05 |
| AUAAAAACGCCAGAACUACAGAAAUGUAGUUGACGAGCAGGAGGUUUAUCGAAUUUUCCGCGGAUGCCUCCAAA | < 1e-05 | – | – |
| AUAAAAGCGCCAGAACUACAGAAAUGUAGUUGACCAGGAUGAGGUUUAUCGUAUUUUCGGCGUAUGCCUCCAAA | < 1e-05 | < 1e-05 | – |
| AUAAAAGCGAGAGAACUACAGAAAUGUAGUUGACCAGGAGGAGCUUUAUCGAAUUUUCGGCGGAUGCCUCCAAA | < 1e-05 | < 1e-05 | – |
| AUAAAAGCGCCAUAACUACAGAAAUGUAGUCGACGAGGAGAAGGUUUAUCGAAUUUUCGGCGGAUGCCUCCAAA | < 1e-05 | – | – |
| AUAAAAGCGCCAGAACUACAGAAAUGUAGUUGACGAGGAGGAGGUUUGUCGCAUUUGCGGCGGAUGCCUCCAAA | < 1e-05 | – | – |
| AUAAAAGCGCCAGAACUACAGAAAUGUAUUUGAUGAGGAGGAGGUUUAUGGAAUUUUCGGCGGAUGCCUUCAAA | 0.000136 ± 2.9e-05 | 8.93e-05 ± 2.5e-05 | – |
| AUAAAAGCGCCAGAACUACAGAAAUGUAGUUGACGAGGAGGACGUUUAUAGAAUUUUCGGCGGAUGCCUCCAAA | < 1e-05 | < 1e-05 | – |
| AUAAAAGCGCCAAAACUACAGAAAUGUAGGUGACGAGGAGUAGGUCUAUCGAAUUUUCGGCGCAUGCCUCCAAA | < 1e-05 | < 1e-05 | – |
| AUAAAAGCGCCAGUACUACAGAAAUGUAGUUGACGAGGAGGAGGUUUAUCGAAUUUUCGGCGGAUGUGUCCAAA | 0.000113 ± 3.4e-05 | – | – |
| AUAAAAGCGCCAGAACUACAGAAAUGUAGUUGCCGAGGAGGAGGUUUAUCGAGUUUUCGGCGGAUGCCUCCAAA | 3.89e-05 ± 1.4e-05 | 7.39e-05 ± 1.3e-05 | 0.000235 ± 3.8e-05 |
| AUAAAAGCGCCACAACUACAGAAAUGUAGUUGACGAGGAGGAGGUUUUUCGAUUUUUCGGGGGAUGCCUCCAAA | < 1e-05 | – | – |
| AUAAAAGCGCCAGAACUACAGAAAUGUAGUUGACGAGGAGGAGGUUUAUCGAAUUUUCGUCAGAUGUCUCCAAA | < 1e-05 | – | – |
| AUAAAAGCGCCAGAACUACAGAAAUGUAAUUGACGAGGAGGAGGUUUAUGGAAUUUUCGGCGGAUGCCUCAAAA | 0.000129 ± 3.4e-05 | 0.000111 ± 2.3e-05 | – |
| AUAAAUGCGCCAGAACUACAGAAAUGUAAUUGACGAAAAGGCUGUUUAUCGAAUUUUCGGCUGAUGCCUUCAAA | < 1e-05 | < 1e-05 | – |
| AUAAAAACGCCAGAUCUACAGAAAUGUAGUUGACGAGGAGGAGGUUUAUCCAAUUUUCGGCGGGUGCCUCCAAA | < 1e-05 | – | – |
| AUAAAUGCGCCAGAGCUAAAGAAAUGUAGUUGCCGAGGAGGAGGUUUAUCGAAUUUUCGGCGGAUGCGUCCAAA | < 1e-05 | < 1e-05 | – |
